“And” between values parts separate entries of the source, which are not always exact repeats. Identical values can stand only once.
Biological target: the molecule itself
Assay: SEC

B1: MBP:NPH3-C104 (domain or fragment, Arabidopsis, UniProt Q9FMF5 643-746, looked up)
chain: PQSFQEGWAAAKKDINTLKFELETVKTKYVELQNEMEVMQRQFEKTGKVKNTPSSSAWTSGWKKLSKLTKMSGQESHDISSGGEQAGVDHPPPRKPRRWRNSIS
For B1, the “stoichiometry N” value was 3 and 6.

From publication doi:10.1101/2024.06.17.598829 (bioRxiv, 2024)
